In article PMC5845983:

Legend:
[1] = biological target: CR1 CCP22-30 (Homo sapiens) (UniProt P17927); experiment: SPR; details: cited from earlier work
[2] = biological target: CR1 soluble CR1 (Homo sapiens) (UniProt P17927); experiment: SPR; details: cited from earlier work
[3] = biological target: CR1 bimodular fragment CCP24-25 His6 (human); experiment: SPR; BIAcore 3000, multiple cycle; CCP24-25 amine-coupled on CM5 (1,000 RU); MBL injected at 20 µl/min in buffer with 3 mM EDTA (methods: HBS-P; legend of Figure 4: 50 mM TEA, 145 mM NaCl, 0.05% P20, pH 7.4); global 1:1 Langmuir fit; apparent KD = kd/ka

Chain of MBL (P11226 21-248): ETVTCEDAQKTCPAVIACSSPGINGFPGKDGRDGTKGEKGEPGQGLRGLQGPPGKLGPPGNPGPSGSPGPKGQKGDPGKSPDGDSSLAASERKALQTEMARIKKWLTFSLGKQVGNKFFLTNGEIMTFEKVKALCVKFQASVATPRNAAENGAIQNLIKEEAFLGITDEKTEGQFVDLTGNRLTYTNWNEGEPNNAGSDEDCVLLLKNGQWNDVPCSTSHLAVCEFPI

| Substance | Kd [1] | Kd [2] | Kd [3] | koff [3] |
| --- | --- | --- | --- | --- |
| MBL (from UniProt P11226) | 0.37 nM | 0.76 nM |  |  |
| Recombinant mannose-binding lectin (MBL) (from UniProt P11226 21-248) (natural protein) |  |  | 0.65 nM | 0.00109 s⁻¹ |
